# B1: Mitochondrial ribonuclease P protein 1: PKGIα substrate, phospho site T377 (protein, UniProt Q5U2R4 36-414, looked up)
# tRNA methyltransferase 10 …: VSSKVPSLPCHNKDSTSPPEQLELDGWKTTMKSSIQENGVSVVSDKDEDSLAATRELIEMWRLLGKEVPEHITEEELKTLMECASKSAKKKYLRYLYGKEMMKKAKQMKKEMKAAAREEAKRARSLEPSTGEEQRDFMFLRLWDRQTNIALGWKGVQAMQFGQPLVFDMAYDNYMKPSELQNTVSQLLESEGWNRRNVDPFHIYFCNLEVDGAYHRELVKRYGEKWDKLLLTATEKSPVDLFPKDSIIYLTADSPNVMTTFKHDKIYIIGSFVDKNTQTGTSLAKAKRQNLATECLPLDKYLQWDVGNKNLTLDQMIRILLCLKNTGNWEEALKFVPRRKHTGYLEVPEHSQAAFRKLKKTKTLNSFRKGSLNVHMWKR
# modifications: phosphorylated at T377
# B2: Leucine-rich PPR motif-containing protein, mitochondrial: PKGIα substrate, phospho site S656 (protein, UniProt Q5SGE0 78-1392, looked up)
# Leucine-rich PPR …: SGSQFDWALMRLDNSVRRTGRITKGLLQKVFESTCRSGSPGSNQALLLLRSCGSLLPELSLAERTEFAHKIWDKLQQLGTVYDVSHYNALLKVYLQNEYRFSPTDFLAKMEGANIQPNRVTYQRLIAAYCSVGDIEGASKILGFMKTRDLPITEAVFSALVTGHARAGDMESAENILTVMKQAGIEPGPDTYLALLNAHAEKGDIDHVKQILEKVEKSDHYFMDRDFLQIIVSFSKAGYPQYVSEILEKITYERRSIPDAMNLILLLVTEKLEDTAFQVLLALPLARDETSSSFGSFFLRHCVTMDTPAEKLIDYCKRLRDAKVHSSSLQFTLHCALQANKTALAKAVMEALRDEGFPIRTHYFWPLLVGHQKTKNVQGIIDILKIMKEMGVDPDQETYINYVFPCFGSVQSARAALQENKCLPKSTTFAQAEVRNEAINGNLQNILSFLESNALPFSFNSLRGSLILGFRRSMNIDLWSKITELLYKDDRYCQKPPGPTEAVGYFLYNLIDSMSDSEVQAKEERLRQYFHQLREMNVKVSENIYKGICNLLDNYHVPELIKDVKVLVDREKIDSRKTSQFTSSDLESTLEKLKAEGHPVGDPLKQLILLLCSEENMQKALEVKAKYESDMVIGGYAALINLCCRHDNAEDALNLKQEFDRLDPSAVLDTAKYVALVKVLGKHGRVQDAINILKEMKEKDVVIKDAAVLSFFHILNGAALRGEIETVKQLHEAIVTLGLAKPSSNISFPLVTVHLEKDDLPAALEASIACHEKYKVLPRIHDVLCKLIEKGETDLIQKAMDFVSQEQGEMSMLYDLFFAFLQTGNYKEAKKIIETPGIRARPTRLQWFCDRCIANNQVETLEKLVELTEKLFECDRDQMYYNLLKLYKISGDWQRADAVWNKMQEENLIPRERTLRLLAGILKTSNQEVPFDVPELWFGDDRSSLSSSSPSAGDTVTEKMLLSDCRLKKSKDAYNIFLKAEKQDVVFSSEAYSTLVGLLLSKDDFTRAMHVKDFAETHIKGFTLNGAASSLLIIAQVRRDYLKVALETLKAALDLEQVPSELAVTRLIQALALQGDVKSIETIQKMVKGLDAIELSRMVFINNIALAQMKNNEIDAAIENIEHMLASENQTVEHQYFGLSYLFRKVIEEQMEPALEKLSIMSERLANQFALYKPVTDLFLQLVDSGKVDEARALLERCGAIAEQTSILSVFCLRTSQKPKKAPVLKTLLELIPELRENDRVYSCSMKSYVADKDVASAKALYEHLTAKNMKLDDLFLKRYASLLKDVGEPVPFTEPPESFGFYIKQLKEARENPS
# modifications: phosphorylated at S656
# B3: Microtubule-associated protein 4: PKGIα substrate, phospho site T899 (protein, UniProt Q5M7W5 2-1057, looked up)
# Microtubule-associated …: ADLSLVDALTEPPPEIEGEIKRDFMAALEAEPYDDIVGETVEKTEFIPLLDGDEKSGNSESKRKPCVDTSQVEDIPSSKPTLLANGDHGVEGNNTTGSPTDFLVENVDYEDYQNSQSWPEDASFCFQPQQVLDTNQADPFNVHHDDGLADLLFVSSGPTNASAFIEENNPLEDSYGVLPCDSFAPTAVVSQEWSVGAPDSPHSEPCVSPEVTIETAQPATELSKAVDLESVKEQLPAKALEMMAGQTTDAVPSKESEGSPDTDAAPGPDTDVTLTKDIEESSSPDVISANVTQPFTESDMFLTQEMELLIGTEAAQVKDTMSSVEPDISSAKNTAPPTEEETVPGKDMTFPKEAETALPIEMDLAPPEDVALPKETELELAPAAGTAPLSETEVALAKDEEPSTGIPAAQEMLLSSETEVVLPSDSIMTLTKEVTVPLEAAGPLVSDMTAILETEMTLGGGTATPTETKLGKVKDMAPLPESEVALGKDVVTLPETKVTEFNNVTPLSEEEVASIKDVSPSPETETAKNADLHSGTELTLDNSMTPPSDPALPLETKVATVQIKDKETVQTQEELSEDSQLESVQLEGQSAVPPCTISPEPVKAADQKSTLPVDEGSPLEKLEQKETSGSQPPELCSGVSRQEEGKAAVGLTGNDIATPPNKELPPSPEKKAKPLATTQPAKTSTSKAKIQPTSLPKQPAPTTSGGLNKKPMSLASGSVPAAPHKRPAAATATARPSTLPARDLKPKPITETKVAEKRTSPSKPSSAPALRPGPKTTPTISKATSPSTLVSTGSSSRSPSTTLPKRPTTTKTEGKPADVKRMTAKSATADLSRSKTTSASSVKRNTTPTGATPPAGMASTRVKPMSAPCRSSVALSVDKKPTSTKPSSSAPRVSRLATTVSAPDLKSVRSKVGSTENMKHQPGGGRVQIQNKKVDISKVSSKCGSKANIKHKPGGGDVKIESQKLNFKEKAQAKVGSLDNVGHLPAGGTVKTEGGGSEAPPCPGPPAGEEPAIPEAAPDAGAPTSASGLSGHTTLSGGGDQREPQTLDSQIQETSI
# modifications: phosphorylated at T899
# B4: Matrin-3: PKGIα substrate, phospho site T150 (protein, UniProt P43244 2-845, looked up)
# Matrin-3: SKSFQQSSLGRDSQGHGRDLSAAGIGLLAAATQSLSMPASLGRMNQGTARLASLMNLGMSSSLNQQGAHSALSSASTSSHNLQSIFNIGSRGPLPLSSQHRGDTDQASNILASFGLSARDLDELSRYPEDKITPENLPQILLQLKRRRTEEGPTLSYGRDGRSATREPPYRVPRDDWEEKRHFRRDSFDDRGPSLNPVLDYDHGSRSQESGYYDRMDYEDDRLRDGERCRDDSFFGETSHNYHKFDSEYERMGRGPGPLQERSLFEKKRGAPPSSNIEDFHGLLPKGYPHLCSICDLPVHSNKEWSQHINGASHSRRCQLLLEIYPEWNPDNDTGHTMGDPFMLQQSTNPAPGILGPPPPSFHLGGPAVGPRGNLGAGNGNLQGPRHMQKGRVETSRVVHIMDFQRGKNLRYQLLQLVEPFGVISNHLILNKINEAFIEMATTEDAQAAVDYYTTTPALVFGKPVRVHLSQKYKRIKKPEGKPDEKFDQKQELGRVIHLSNLPHSGYSDSAVLKLAEPYGKIKNYILMRMKSQAFIEMETREDAMAMVDHCLKKALWFQGRCVKVDLSEKYKKLVLRIPNRGIDLLKKDKSRKRSYSPDGKESPSDKKSKTDGAQKTENPAEGKEQEEKSGEDGEKDTKDDQTEQEPSMLLESEDELLVDEEEAAALIESGSSVGDETDLANLGDVSSDGKKEPSDKAVKKDASATSKKKLKKVDKIEELDQENEAALENGIKNEENTEPGAESAENADDPNKDASDNSDGQNDENKEDYTIPDEYRIGPYQPNVPGGIDYVIPKTGFYCKLCSLFYTNEEVAKNTHCSSLPHYQKLKKFLNKLAEERRQKKES
# modifications: phosphorylated at T150
# System: PKGIα (analogue-sensitive M438G), disulfide-activated
# Assay: Chemical genetic phosphoproteomic screen, disulfide-activated PKGIα M438G versus unactivated control
# Format: biochemical, human PKGIα; substrates in rat heart homogenate
# Conditions: disulfide-activated PKGIα M438G vs basal; 1 h, 30 °C, pH 7.5, rat heart homogenate; label-free LC–MS/MS; n=4; * P<0.05 Dunnett: only phospholamban S16
# Description: (§1) We employed a chemical genetic method[18] to identify direct substrates of cGMP-activated PKGIα and disulfide bond-activated PKGIα in heart tissue. This method involves mutation of the ATP binding-site of the kinase of interest so that it can accept a ‘bulky' N6-alkylated ATP analogue for example, N6^−phenylethyl ATP. An oxygen atom on the γ phosphate is also replaced with a sulfur atom—giving an N6-alkylated ATPγS analogue—so that the mutant kinase catalyses the transfer of a thiophosphate group (–PO3S^3−) to its substrates instead of a phosphate. The thiophosphate group is nucleophilic, providing a basis for substrates of the analogue-sensitive kinase to be purified by a ‘covalent capture' protocol. LC–MS/MS allows identification of the substrate and localization of the phosphorylation site. Thiophosphorylated proteins can also be detected with a thiophosphate ester-specific antibody. Analogue-sensitive mutants of PKGIα and PKGIα C42S (which cannot form the activating intermolecular disulfide bond) were generated by mutating Met438 in the ATP-binding domain to Gly. This mutation was chosen based on a previous study where an analogue-sensitive mutant of the catalytic subunit of PKA—which shares sequence homology with PKGIα—was engineered. Detailed protocols are given below.
# (§2) A pCDNA3 expression vector encoding human FLAG-tagged PKGIα (ref. [41]) underwent site-directed mutagenesis to generate constructs for untagged WT, C42S, M438G and C42S/M438G PKGIα. Mutations were introduced using the QuikChange II Site-Directed Mutagenesis Kit (Agilent) according to the manufacturer's instructions. Expression and purification of the PKGIα mutants was performed according to a published method[42] as follows: suspension FreeStyle 293-F cells (ThermoFisher Scientific) were transfected with the appropriate PKGIα construct using the stable cationic polymer polyethyleneimine (PEI) as a transfection reagent. After ∼72 h cells were harvested by centrifugation (400g; room temperature; 15 min), re-suspended in ice cold lysis buffer (25 mM sodium phosphate buffer pH 6.8; 10 mM ethylenediaminetetraacetic acid (EDTA); 100 mM NaCl; 10 mM benzamidine hydrochloride; and 10 mM dithiothreitol (DTT)) and frozen in liquid N2. Cells were lysed by three freeze (liquid N2)-thaw (37 °C) cycles and the lysate was clarified by centrifugation at 140,000g and 4 °C for 30 min. The soluble protein fraction was loaded onto a pre-equilibrated 8-(2-aminoethylamino)adenosine-3′, 5′-cyclic monophosphate column (8-AEA-cAMP agarose; BioLog, Germany) followed by washing with 20 column volumes of lysis buffer. The column was further washed with lysis buffer +3 M NaCl (5 column volumes) and PKGIα was then eluted with lysis buffer +150 mM NaCl and 500 μM cAMP. Removal of cAMP and buffer exchange was achieved by extensive dialysis against 25 mM sodium phosphate buffer pH 6.8, 2 mM EDTA and 100 mM NaCl. For ITC analysis, WT PKGIα was incubated with 10 mM lipoic acid for 2 h on ice to obtain ∼100% disulfide dimer (confirmed by SDS-PAGE). Oxidized WT or C42S PKGIα was further purified by size exclusion chromatography using a HiLoad 16/600 Superdex 200 pg column (GE Healthcare) with 50 mM sodium phosphate buffer pH 7.4 and 100 mM NaCl. Proteins were concentrated using Amicon Ultra centrifugal filter devices (Merck Millipore). DTT was absent in storage buffers so that the activating disulfide bond would not be reduced and so that the PKGIα M438G mutant would be oxidized to disulfide dimer in the presence of air (confirmed by SDS-PAGE). Protein concentration was determined by Pierce BCA assay (ThermoFisher) and enzyme activity was confirmed using the Omnia kinase assay kit (ThermoFisher).
# (§3) Male Wistar rats (9–10 weeks; body weight 300–330 g) were euthanized by intraperitoneal injection of sodium pentobarbitone (200 mg kg^−1) with heparin (500 USP units). […]
row,Molecule,"Log2 fold change in phosphorylation, Disulfide versus control"
1,B1,0.45
2,B2,0.77
3,B3,1.73
4,B4,1.38

# System: PKGIα (analogue-sensitive C42S/M438G), cGMP-activated
# Assay: Chemical genetic phosphoproteomic screen, cGMP-activated PKGIα C42S/M438G versus unactivated control
# Format: biochemical, human PKGIα; substrates in rat heart homogenate
# Conditions: PKGIα C42S/M438G + 100 μM cGMP vs basal; 1 h, 30 °C, pH 7.5, rat heart homogenate; label-free LC–MS/MS; n=4; * P<0.05 Dunnett: all values except phospholamban S16
# Description: as §1, §2, §3
row,Molecule,"Log2 fold change in phosphorylation, cGMP versus control"
1,B1,1.98*
2,B2,4.57*
3,B3,3.69*
4,B4,3.58*

# From publication PMC5095173, “Disulfide-activated protein kinase G Iα regulates cardiac diastolic relaxation and fine-tunes the Frank–Starling response” (Nature Communications, 2016)
